Measurements reported in US20210163581A1 (ALAMAB THERAPEUTICS, published 2021).
Values belong to the binder of their own block, whether it stands above or below them.

How the values were obtained:
CD64 [1] = biological target: T1, CD64 (UniProt P12314 16-288); test: SPR Biacore 8K, CD64 captured by anti-His antibody, antibody as analyte, 1:1 binding fit
T1 construct: also called FCRI
Method: 2 μg/mL CD64 in running buffer (1×HBS-EP+) was injected to Fc2 of channel 1-4 at a flow rate of 10 μL/min for 30 s. 6 concentrations (40, 20, 10, 5, 2.5 and 1.25 nM) of analyte 20170905-Ab #C-02, 20170905-Ab #D-02, 20170908-Ab #G-02, 20170920-Ab #H-02 and running buffer were injected orderly to Fc1-Fc2 of channel 1-4 at a flow rate of 30 μL/min for an association phase of 180, followed by 400 dissociation. Repeat 6 cycles of capturing ligand and running analyte according to analyte concentrations in ascending order. 10 mM glycine pH 1.5 as regeneration buffer was injected following every dissociation phase.
(§1) Surface channels Fc1 without capturing ligand was used as control surface for reference subtraction. Final data of each interaction w as deducted from reference channel and buffer channel data. The experimental data of 20170905-Ab #C-02, 20170905-Ab #D-02, 20170908-Ab #G-02, 20170920-Ab #H-02 binding to CD64 was fitted by 1:1 binding mode. The 10240 nM curves of analyte 20170907-Ab #K-02, 20170908-Ab #L-02, 20170915-Ab #O-02, 20170919-Ab #P-02, 20170919-Ab #S-02 and 20170920-Ab #T-02 were removed to allow a better fit.

[2] = biological target: T2, Cx43 (peptide used in the Biacore affinity assay of Example 1); test: SPR Biacore T200, antibody and Cx43 peptide; format and peptide not given
T2 construct: also called connexin 43; PEP1 (914)

C1q [3] = biological target: T3, C1q (UniProt P02745 23-245; P02746 28-253; P02747 29-245); test: ELISA, antibody coated at 3 µg/mL, C1q titrated
T3 construct: also called Clq
T3 sequence (P02745 23-245, chain 1 of 3): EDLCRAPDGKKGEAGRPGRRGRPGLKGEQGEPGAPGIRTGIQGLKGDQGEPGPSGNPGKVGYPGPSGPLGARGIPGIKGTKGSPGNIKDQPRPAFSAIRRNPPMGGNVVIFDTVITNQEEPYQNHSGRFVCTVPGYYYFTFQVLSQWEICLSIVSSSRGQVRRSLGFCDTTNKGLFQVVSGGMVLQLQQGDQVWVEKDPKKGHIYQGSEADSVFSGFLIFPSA
T3 sequence (P02746 28-253, chain 2 of 3): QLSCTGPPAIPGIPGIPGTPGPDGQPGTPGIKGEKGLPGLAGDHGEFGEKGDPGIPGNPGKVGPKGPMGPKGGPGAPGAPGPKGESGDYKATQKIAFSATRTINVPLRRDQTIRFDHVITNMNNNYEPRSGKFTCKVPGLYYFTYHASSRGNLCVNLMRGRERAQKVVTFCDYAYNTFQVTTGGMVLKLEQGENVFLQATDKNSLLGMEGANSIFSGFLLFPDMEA
T3 sequence (P02747 29-245, chain 3 of 3): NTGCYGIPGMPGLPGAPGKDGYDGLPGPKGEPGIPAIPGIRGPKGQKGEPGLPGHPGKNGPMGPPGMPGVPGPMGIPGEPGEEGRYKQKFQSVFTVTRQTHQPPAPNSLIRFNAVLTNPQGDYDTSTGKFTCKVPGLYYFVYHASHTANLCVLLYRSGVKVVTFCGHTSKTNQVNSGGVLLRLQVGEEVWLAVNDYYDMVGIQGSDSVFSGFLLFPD
Method: (§2) Plates (Nunc) were coated with antibodies at 3 μg/mL overnight at 4° C. After blocking and washing, Clq was half-log titrated in blocking buffer (600, 189.75, 60.01, 18.98, 6.00, 1.90, 0.60, 0.19, 0.06 and 0.02 μg/mL) and incubated at room temperature for 2 h. The plates were then washed and subsequently incubated with secondary antibody Sheep anti-human Clq Ab-HRP for 1 h. After washing, TMB substrate was added and the interaction was stopped by 2M HCl.

human FcRn = biological target: T4, human FcRn (human, UniProt P55899 24-297; P61769 21-119); test: SPR Biacore 8K, antibody amine-coupled to CM5, FcRn as analyte, pH 6.0, steady state affinity fit
T4 construct: The b2m chain is my addition
Method: The activator was prepared by mixing 400 mM EDC and 100 mM NHS (GE) immediately prior to injection. The CM5 sensor chip was activated for 420 s with the mixture at a flow rate of 10 μL/min. 5 μg/mL of antibodies in 10 mM NaAc (pH 5.5) were then injected to Fc2 of channel 1-8 respectively at a flow rate of 10 μL/min for 60 s. The relative Fc1 was blocked. The chip w as deactivated by 1 M ethanolamine-HCl (GE) at a flow rate of 10 μL/min for 420 s.
Analyte FcRn was injected to channel 1-8 respectively. 8 concentrations of FcRn (0, 93.75, 187.5, 375, 750, 1500, 3000 and 6000 nM) were monitored at a flow rate of 30 μL/min for an association phase of 60 s, followed by 90 s dissociation. After each cycle of interaction analysis, the sensor chip surface was regenerated with 1×PBS (pH 7.4) at a flow rate of 10 μL/min for 30 s.
Surface channels Fc1 without immobilized antibodies were used as control surface for reference subtraction. Final data of each interaction was deducted from reference channel and buffer channel data.

FcγRIIa = biological target: T5, FcγRIIa (UniProt P12318 36-218, limits assumed); test: SPR Biacore 8K, receptor captured by anti-His antibody, antibody as analyte, steady state affinity fit; unit inferred
T5 construct: also called FCRIIa
T5 sequence (looked up): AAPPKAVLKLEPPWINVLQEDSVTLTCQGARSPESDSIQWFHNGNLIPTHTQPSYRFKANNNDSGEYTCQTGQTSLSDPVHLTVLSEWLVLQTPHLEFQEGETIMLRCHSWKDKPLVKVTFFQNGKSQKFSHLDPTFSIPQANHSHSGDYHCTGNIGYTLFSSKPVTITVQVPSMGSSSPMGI
Method: 1 μg/mL FcγRIIa, FcγRIIb, FcγRIIIa, or FcγRIIIb in running buffer (1×HBS-EP+) was injected to Fc2 of channel 1-8 at a flow rate of 10 μL/min for 15 s. Analytes were injected to channel 1-8 respectively. A series of analyte concentrations (seeing Table 3 below) were monitored at a flow rate of 30 μL/min for an association phase of 60 s, followed by 90 s dissociation. 10 mM glycine pH 1.5 as regeneration buffer was injected following every dissociation phase.
Surface channels Fc1 without capturing ligand was used as control surface for reference subtraction. Final data of each interaction was deducted from reference channel and buffer channel data. The experimental data of antibodies binding to FcγRIIa, FcγRIIb, FcγRIIIa, and FcγRIIIb was fitted by steady state affinity mode and shown in Table 4 below.

C1q [4] = biological target: T3, C1q; test: ELISA, antibody coated at 3 µg/mL, C1q titrated, anti-human C1q-HRP detection
Method: as §2

CD64 [5] = biological target: T1, CD64; test: SPR Biacore 8K, CD64 captured by anti-His antibody, antibody as analyte, steady state affinity fit; steady state affinity fit; no ka/kd
Method: (§3) 2 μg/mL CD64 in running buffer (1×HBS-EP+) was injected to Fc2 of channel 1-6 at a flow rate of 10 μL/min for 30 s. […] Repeat 8 cycles of capturing ligand and running analyte according to analyte concentrations in ascending order. 10 mM glycine pH 1.5 as regeneration buffer was injected following every dissociation phase.
as §1

CD64 [6] = biological target: T1, CD64; test: SPR Biacore 8K, CD64 captured by anti-His antibody, antibody as analyte, steady state affinity fit
Method: as §3, §1

T1 sequence (P12314 16-288 limits assumed): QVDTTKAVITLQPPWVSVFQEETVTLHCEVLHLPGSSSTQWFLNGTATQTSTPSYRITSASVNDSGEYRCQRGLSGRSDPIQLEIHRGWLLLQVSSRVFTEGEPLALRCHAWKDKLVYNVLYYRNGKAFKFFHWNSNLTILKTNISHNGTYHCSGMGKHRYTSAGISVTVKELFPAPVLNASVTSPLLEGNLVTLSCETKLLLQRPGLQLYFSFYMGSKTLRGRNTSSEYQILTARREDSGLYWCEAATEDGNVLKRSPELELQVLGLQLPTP

B1: Ab#H (antibody, human IgG4 S228P, kappa)
heavy: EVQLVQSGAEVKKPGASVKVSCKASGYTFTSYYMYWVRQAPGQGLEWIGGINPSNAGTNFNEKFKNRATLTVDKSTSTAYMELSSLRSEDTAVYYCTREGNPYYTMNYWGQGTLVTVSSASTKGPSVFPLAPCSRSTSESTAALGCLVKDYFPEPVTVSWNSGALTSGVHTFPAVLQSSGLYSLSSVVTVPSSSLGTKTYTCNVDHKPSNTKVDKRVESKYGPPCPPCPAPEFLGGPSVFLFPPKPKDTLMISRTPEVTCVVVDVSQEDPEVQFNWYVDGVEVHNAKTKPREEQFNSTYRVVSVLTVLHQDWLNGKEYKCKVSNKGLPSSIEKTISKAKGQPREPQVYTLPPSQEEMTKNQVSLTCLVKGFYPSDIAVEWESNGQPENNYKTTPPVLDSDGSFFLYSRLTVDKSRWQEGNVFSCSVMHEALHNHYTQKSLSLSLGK
light: DVVMTQSPLSLPVTIGQPASISCKSSQSLLESDGKTYLNWLQQRPGQSPRRLIYLVSKLDSGVPDRFSGSGSGTDFTLKISRVEAEDVGVYYCWQGTHFPWTFGGGTKVEIKRTVAAPSVFIFPPSDEQLKSGTASVVCLLNNFYPREAKVQWKVDNALQSGNSQESVTEQDSKDSTYSLSSTLTLSKADYEKHKVYACEVTHQGLSSPVTKSFNRGEC
notes: also called 20170920-Ab #H-02; Mab H
Kd (CD64 [1]): 5.73 nM
koff (CD64 [1]): 0.00318 s⁻¹
kon (CD64 [1]): 554000 M⁻¹ s⁻¹
Kd [2]: 46.5 nM
binding result (C1q [3]): no binding
Kd (human FcRn): 2610 nM

B2: Ab#D (antibody, human IgG1, kappa)
heavy: not shown
light: B1 light
notes: Light chain tie is indirect; also called 20170905-Ab #D-02
Kd (CD64 [1]): 1.92 nM
koff (CD64 [1]): 0.000925 s⁻¹
kon (CD64 [1]): 482000 M⁻¹ s⁻¹
Kd [2]: 198 nM
Kd (FcγRIIa): 3390 nM
Kd (C1q [4]): 75 nM
Kd (human FcRn): 2250 nM

B3: Ab#L (antibody, human IgG1, kappa, L234A L235A)
heavy: not shown
light: B1 light
notes: also called 20170908-Ab #L-02
Kd [2]: 10.1 nM
Kd (CD64 [5]): 1620 nM
Kd (human FcRn): 2600 nM

Binders with a lower Kd [2], results first:

Kd [2]: 0.582 nM
Kd (CD64 [6]): 3050 nM
binding result (C1q [3]): no binding
Kd (human FcRn): 2560 nM
B4: Ab#T (antibody, human IgG4 S228P, kappa, F234A L235A)
heavy: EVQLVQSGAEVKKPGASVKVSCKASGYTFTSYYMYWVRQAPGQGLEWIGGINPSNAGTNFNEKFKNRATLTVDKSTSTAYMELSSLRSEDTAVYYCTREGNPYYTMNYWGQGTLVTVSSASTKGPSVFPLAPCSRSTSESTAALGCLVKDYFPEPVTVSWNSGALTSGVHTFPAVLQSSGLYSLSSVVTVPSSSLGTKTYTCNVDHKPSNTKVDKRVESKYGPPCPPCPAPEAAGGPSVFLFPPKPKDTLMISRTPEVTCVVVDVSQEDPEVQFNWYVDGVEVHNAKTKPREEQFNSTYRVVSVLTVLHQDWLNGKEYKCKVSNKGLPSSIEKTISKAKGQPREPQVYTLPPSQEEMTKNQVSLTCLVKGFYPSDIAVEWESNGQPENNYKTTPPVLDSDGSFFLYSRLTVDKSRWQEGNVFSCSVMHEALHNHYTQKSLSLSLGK
light: B1 light
notes: also called 20170920-Ab #T-02

Kd [2]: 8.58 nM
Kd (CD64 [6]): 2790 nM
binding result (C1q [3]): no binding
Kd (human FcRn): 2550 nM
B5: Ab#P (antibody, human IgG4 S228P, kappa)
heavy: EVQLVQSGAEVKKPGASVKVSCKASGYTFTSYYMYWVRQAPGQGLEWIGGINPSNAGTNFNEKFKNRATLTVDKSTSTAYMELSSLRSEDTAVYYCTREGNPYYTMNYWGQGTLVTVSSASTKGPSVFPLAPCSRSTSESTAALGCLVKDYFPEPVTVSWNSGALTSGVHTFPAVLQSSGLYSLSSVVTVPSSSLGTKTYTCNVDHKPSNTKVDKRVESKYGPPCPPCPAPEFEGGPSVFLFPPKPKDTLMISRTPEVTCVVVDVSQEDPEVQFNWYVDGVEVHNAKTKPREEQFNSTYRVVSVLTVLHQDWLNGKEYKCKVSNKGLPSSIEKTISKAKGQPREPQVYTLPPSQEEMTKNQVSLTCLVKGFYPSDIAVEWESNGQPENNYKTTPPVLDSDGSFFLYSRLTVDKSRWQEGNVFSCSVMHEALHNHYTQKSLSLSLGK
light: B1 light
